In the Immune Epitope Database (IEDB):

Columns and labels:
HLA-B*35:01 = assay: IEDB peptide-MHC binding, purified MHC/competitive/fluorescence; filed as Kd, often an IC50 or EC50 that approximates it; ≥ and ≤ were set here for values at or beyond the usual limits of such assays
HLA-B*15:01 [1] = assay: IEDB peptide-MHC binding, purified MHC/direct/fluorescence; filed as Kd, often an IC50 or EC50 that approximates it; ≥ and ≤ were set here for values at or beyond the usual limits of such assays
HLA-B*15:01 [2] = assay: IEDB peptide-MHC binding, purified MHC/competitive/fluorescence; filed as Kd, often an IC50 or EC50 that approximates it; ≥ and ≤ were set here for values at or beyond the usual limits of such assays
HLA-A*03:01 [3] = assay: as above
HLA-A*26:01 [4] = assay: as above
HLA-B*58:01 [5] = assay: as above
HLA-A*01:01 [6] = assay: as above; conditions: source organism: Salmonella enterica subsp. enterica serovar Typhi
HLA-B*46:01 [7] = assay: as above; conditions: source organism: Zaire ebolavirus
HLA-B*39:01 = assay: as above; conditions: source organism: Zaire ebolavirus
HLA-B*51:01 = assay: as above
HLA-B*18:01 [8] = assay: as above
HLA-B*27:03 = assay: as above; conditions: source organism: Zaire ebolavirus
HLA-A*02:01 [9] = assay: as above; conditions: source organism: Zaire ebolavirus
HLA-A*69:01 [10] = assay: as above; conditions: source organism: Zaire ebolavirus
HLA-A*03:01 [11] = assay: IEDB peptide-MHC binding, purified MHC/direct/fluorescence; filed as Kd, often an IC50 or EC50 that approximates it; ≥ and ≤ were set here for values at or beyond the usual limits of such assays
HLA-A*02:11 = assay: as above; conditions: source organism: Zaire ebolavirus
HLA-A*68:02 [12] = assay: as above; conditions: source organism: Zaire ebolavirus
HLA-A*02:12 = assay: as above; conditions: source organism: Zaire ebolavirus
HLA-A*02:03 = assay: as above; conditions: source organism: Zaire ebolavirus
HLA-A*02:16 = assay: as above; conditions: source organism: Zaire ebolavirus
HLA-A*02:19 = assay: as above; conditions: source organism: Zaire ebolavirus
HLA-A*02:06 = assay: IEDB peptide-MHC binding, purified MHC/competitive/fluorescence; filed as Kd, often an IC50 or EC50 that approximates it; ≥ and ≤ were set here for values at or beyond the usual limits of such assays; conditions: source organism: Vaccinia virus WR
HLA-A*30:01 = assay: as above; conditions: source organism: Vaccinia virus WR
HLA-B*15:17 = assay: as above; conditions: source organism: Vaccinia virus WR
HLA-B*27:05 = assay: IEDB peptide-MHC binding, purified MHC/direct/fluorescence; filed as Kd, often an IC50 or EC50 that approximates it; ≥ and ≤ were set here for values at or beyond the usual limits of such assays
HLA-B*58:01 [13] = assay: as above
HLA-A*26:01 [14] = assay: as above
HLA-B*40:01 = assay: as above
HLA-B*57:01 = assay: as above; conditions: source organism: Camelpox virus M-96
HLA-B*48:01 = assay: as above; conditions: source organism: Camelpox virus M-96
HLA-A*01:01 [15] = assay: as above
HLA-A*31:01 [16] = assay: as above
HLA-A*02:01 [17] = assay: as above
HLA-A*69:01 [18] = assay: as above
HLA-A*11:01 = assay: as above
HLA-B*08:01 = assay: IEDB peptide-MHC binding, purified MHC/competitive/fluorescence; filed as Kd, often an IC50 or EC50 that approximates it; ≥ and ≤ were set here for values at or beyond the usual limits of such assays
HLA-A*68:02 [19] = assay: as above; conditions: source organism: Vaccinia virus WR
HLA-A*31:01 [20] = assay: as above; conditions: source organism: Vaccinia virus WR
HLA-B*07:02 = assay: IEDB peptide-MHC binding, purified MHC/direct/fluorescence; filed as Kd, often an IC50 or EC50 that approximates it; ≥ and ≤ were set here for values at or beyond the usual limits of such assays
HLA-B*46:01 [21] = assay: as above
HLA-B*18:01 [22] = assay: as above
HLA-B*08:02 = assay: as above; conditions: source organism: Vibrio parahaemolyticus RIMD 2210633
HLA-B*44:02 = assay: as above; conditions: source organism: Vibrio parahaemolyticus
HLA-A*24:02 = assay: as above; conditions: source organism: Vibrio parahaemolyticus
[23] = source organism: Bacillus anthracis str. A2012
[24] = source organism: Yersinia pestis Nepal516
[25] = source organism: Salmonella enterica subsp. enterica serovar Typhi
[26] = source organism: Zaire ebolavirus
[27] = source organism: Vaccinia virus WR
[28] = source organism: Camelpox virus M-96
[29] = source organism: Yersinia pestis Antiqua
[30] = source organism: Shigella flexneri 5 str. 8401
[31] = source organism: Vibrio parahaemolyticus

Which Kd (HLA-B*35:01; source organism: Mycobacterium tuberculosis C) does the source give for LMLADHPEY here?
The Kd was 0.0186 µM.

What about the Kd (HLA-B*15:01 [1]; source organism: Mycobacterium tuberculosis) of the same sequence?
The Kd was 0.313 µM.

With MGMNAYFAY as the sequence, how does the Kd (HLA-B*15:01 [2]; [23]) read?
The Kd was 0.0612 µM.

What about the Kd (HLA-B*35:01; [23]) of the same sequence?
Its Kd is ≤ 0.0001 µM.

Which results are given for VVNDFTVSY?
Kd (HLA-A*03:01 [3]; [24]): 0.122 µM; Kd (HLA-B*35:01; [24]): 0.0035 µM; Kd (HLA-A*26:01 [4]; [24]): 0.225 µM

For VTIGNAYIY, which Kd (HLA-A*03:01 [3]; [25]) is on record?
Its Kd is ≥ 20 µM.

And the Kd (HLA-B*58:01 [5]; [25])?
Its Kd is 0.0625 µM.

And the Kd (HLA-A*26:01 [4]; [25])?
The Kd was 1.05 µM.

What about the Kd (HLA-A*01:01 [6]) of the same sequence?
Its Kd is 3.5 µM.

Which Kd (HLA-B*58:01 [5]; [23]) does the source give for VSFLISWSL here?
The Kd was 2.61 µM.

VLMKQIPIW was tested. Which Kd (HLA-B*15:01 [2]; [26]) did it give?
Its Kd is ≥ 20 µM.

What about the Kd (HLA-B*58:01 [5]; [26]) of the same sequence?
Its Kd is 0.0013 µM.

What about the Kd (HLA-B*46:01 [7]) of the same sequence?
Its Kd is ≥ 20 µM.

And the Kd (HLA-A*26:01 [4]; [26])?
The Kd was ≥ 20 µM.

What about the Kd (HLA-B*39:01) of the same sequence?
The Kd was ≥ 20 µM.

What about the Kd (HLA-B*51:01; [26]) of the same sequence?
The Kd was ≥ 20 µM.

What about the Kd (HLA-B*18:01 [8]; [26]) of the same sequence?
Its Kd is ≥ 20 µM.

What about the Kd (HLA-B*27:03) of the same sequence?
Its Kd is ≥ 20 µM.

What about the Kd (HLA-A*02:01 [9]) of the same sequence?
The Kd was ≥ 20 µM.

And the Kd (HLA-A*69:01 [10])?
Its Kd is ≥ 20 µM.

What about the Kd (HLA-A*03:01 [11]; [26]) of the same sequence?
Its Kd is ≥ 20 µM.

What about the Kd (HLA-A*02:11) of the same sequence?
Its Kd is ≥ 20 µM.

What about the Kd (HLA-A*68:02 [12]) of the same sequence?
The Kd was ≥ 20 µM.

What about the Kd (HLA-A*02:12) of the same sequence?
Its Kd is ≥ 20 µM.

What about the Kd (HLA-A*02:03) of the same sequence?
Its Kd is ≥ 20 µM.

What about the Kd (HLA-A*02:16) of the same sequence?
The Kd was ≥ 20 µM.

And the Kd (HLA-A*02:19)?
Its Kd is ≥ 20 µM.

For FVHTLLKTY, which Kd (HLA-A*02:06) is on record?
Its Kd is 2.97 µM.

And the Kd (HLA-B*15:01 [2]; [27])?
Its Kd is 0.308 µM.

What about the Kd (HLA-A*30:01) of the same sequence?
The Kd was ≥ 20 µM.

What about the Kd (HLA-B*18:01 [8]; [27]) of the same sequence?
The Kd was ≥ 20 µM.

What about the Kd (HLA-B*15:17) of the same sequence?
Its Kd is 0.0554 µM.

And the Kd (HLA-A*03:01 [11]; [28])?
Its Kd is ≥ 20 µM.

What about the Kd (HLA-B*27:05; [28]) of the same sequence?
Its Kd is ≥ 20 µM.

And the Kd (HLA-B*58:01 [13]; [28])?
The Kd was ≥ 20 µM.

And the Kd (HLA-A*26:01 [14]; [28])?
The Kd was 0.0733 µM.

And the Kd (HLA-B*40:01; [28])?
Its Kd is ≥ 20 µM.

And the Kd (HLA-B*57:01)?
The Kd was ≥ 20 µM.

What about the Kd (HLA-B*48:01) of the same sequence?
The Kd was ≥ 20 µM.

What about the Kd (HLA-A*01:01 [15]; [28]) of the same sequence?
Its Kd is ≥ 20 µM.

And the Kd (HLA-A*31:01 [16]; [28])?
The Kd was ≥ 20 µM.

And the Kd (HLA-A*02:01 [17]; [28])?
Its Kd is ≥ 20 µM.

And the Kd (HLA-A*69:01 [18]; [28])?
Its Kd is ≥ 20 µM.

What about the Kd (HLA-A*11:01; [28]) of the same sequence?
The Kd was ≥ 20 µM.

Which results are given for EAKLFFQVI?
Kd (HLA-B*08:01; [29]): 0.755 µM; Kd (HLA-B*51:01; [29]): 0.726 µM

MFAAGLILY was tested. Which Kd (HLA-A*03:01 [3]; [30]) did it give?
The Kd was ≥ 20 µM.

And the Kd (HLA-B*15:01 [2]; [30])?
Its Kd is ≥ 20 µM.

What about the Kd (HLA-B*35:01; [30]) of the same sequence?
Its Kd is 1.06 µM.

Which results are given for LTFLHTLYK?
Kd (HLA-A*02:06): 1.09 µM; Kd (HLA-A*68:02 [19]): 1.09 µM; Kd (HLA-B*15:17): 0.226 µM; Kd (HLA-A*31:01 [20]): 0.224 µM; Kd (HLA-A*03:01 [11]; [28]): 0.16 µM; Kd (HLA-B*15:01 [1]; [28]): ≥ 20 µM; Kd (HLA-B*27:05; [28]): ≥ 20 µM; Kd (HLA-B*07:02; [28]): ≥ 20 µM; Kd (HLA-B*58:01 [13]; [28]): ≥ 20 µM; Kd (HLA-B*46:01 [21]; [28]): ≥ 20 µM; Kd (HLA-B*40:01; [28]): ≥ 20 µM; Kd (HLA-B*18:01 [22]; [28]): ≥ 20 µM; Kd (HLA-B*57:01): ≥ 20 µM; Kd (HLA-B*48:01): ≥ 20 µM; Kd (HLA-A*01:01 [15]; [28]): ≥ 20 µM; Kd (HLA-A*02:01 [17]; [28]): ≥ 20 µM; Kd (HLA-A*69:01 [18]; [28]): ≥ 20 µM; Kd (HLA-A*11:01; [28]): 0.104 µM

How did the Kd (HLA-B*08:01; source organism: Vibrio parahaemolyticus K5030) turn out when ALSMGINTV was run?
The Kd was ≥ 20 µM.

What about the Kd (HLA-A*03:01 [11]; [31]) of the same sequence?
The Kd was ≥ 20 µM.

And the Kd (HLA-B*15:01 [1]; [31])?
Its Kd is ≥ 20 µM.

And the Kd (HLA-B*27:05; [31])?
The Kd was ≥ 20 µM.

What about the Kd (HLA-B*07:02; [31]) of the same sequence?
Its Kd is ≥ 20 µM.

What about the Kd (HLA-B*08:02) of the same sequence?
Its Kd is ≥ 20 µM.

And the Kd (HLA-B*58:01 [13]; [31])?
The Kd was ≥ 20 µM.

What about the Kd (HLA-B*46:01 [21]; [31]) of the same sequence?
The Kd was ≥ 20 µM.

And the Kd (HLA-A*26:01 [14]; source organism: Vibrio parahaemolyticus RIMD 2210633)?
The Kd was ≥ 20 µM.

And the Kd (HLA-B*40:01; [31])?
The Kd was ≥ 20 µM.

And the Kd (HLA-B*44:02)?
The Kd was ≥ 20 µM.

What about the Kd (HLA-A*24:02) of the same sequence?
Its Kd is ≥ 20 µM.

And the Kd (HLA-B*18:01 [22]; [31])?
The Kd was ≥ 20 µM.

And the Kd (HLA-A*01:01 [15]; [31])?
The Kd was ≥ 20 µM.

What about the Kd (HLA-A*31:01 [16]; [31]) of the same sequence?
Its Kd is ≥ 20 µM.

What about the Kd (HLA-A*02:01 [17]; [31]) of the same sequence?
The Kd was 0.0356 µM.

What about the Kd (HLA-A*69:01 [18]; [31]) of the same sequence?
The Kd was 2 µM.

What about the Kd (HLA-A*11:01; [31]) of the same sequence?
Its Kd is ≥ 20 µM.
